The results in this text go back to patent US20260193293A1, “PEPTIDES CAPABLE OF INHIBITING PROTEIN-PROTEIN INTERACTIONS AT GABAB1A SUBUNIT AND USES THEREOF” (UNIVERSITY OF COPENHAGEN, priority 2022, published 2026).

Non-standard residues stand in square brackets, D forms with d. NMeW = CN[C@@H](Cc1c[nH]c2ccccc12)C(=O)O; NMeF = CN[C@@H](Cc1ccccc1)C(=O)O; NMeI = CC[C@H](C)[C@H](NC)C(=O)O; NMeT = CN[C@H](C(=O)O)[C@@H](C)O; NMeE = CN[C@@H](CCC(=O)O)C(=O)O; NMeD = CN[C@@H](CC(=O)O)C(=O)O; Sar = CNCC(=O)O

Sequences and labels used below:
B1: ET(N-Me-E)… (peptide)
peptide: Ac-ET[NMeE]FIAWGPTGDED-NH2
SMILES: CC[C@H](C)[C@H](NC(=O)[C@H](Cc1ccccc1)NC(=O)[C@H](CCC(=O)O)N(C)C(=O)[C@@H](NC(=O)[C@H](CCC(=O)O)NC(C)=O)[C@@H](C)O)C(=O)N[C@@H](C)C(=O)N[C@@H](Cc1c[nH]c2ccccc12)C(=O)NCC(=O)N1CCC[C@H]1C(=O)N[C@H](C(=O)NCC(=O)N[C@@H](CC(=O)O)C(=O)N[C@@H](CCC(=O)O)C(=O)N[C@@H](CC(=O)O)C(N)=O)[C@@H](C)O
B2: ETEFIA(N-Me-W)GPTGDED (peptide)
peptide: Ac-ETEFIA[NMeW]GPTGDED-NH2
SMILES: CC[C@H](C)[C@H](NC(=O)[C@H](Cc1ccccc1)NC(=O)[C@H](CCC(=O)O)NC(=O)[C@@H](NC(=O)[C@H](CCC(=O)O)NC(C)=O)[C@@H](C)O)C(=O)N[C@@H](C)C(=O)N(C)[C@@H](Cc1c[nH]c2ccccc12)C(=O)NCC(=O)N1CCC[C@H]1C(=O)N[C@H](C(=O)NCC(=O)N[C@@H](CC(=O)O)C(=O)N[C@@H](CCC(=O)O)C(=O)N[C@@H](CC(=O)O)C(N)=O)[C@@H](C)O
B3: peptide 38 (Ac-ETEFIAWG(N-Me-G)TGDED-NH2) (peptide)
peptide: Ac-ETEFIAWG[Sar]TGDED-NH2
SMILES: CC[C@H](C)[C@H](NC(=O)[C@H](Cc1ccccc1)NC(=O)[C@H](CCC(=O)O)NC(=O)[C@@H](NC(=O)[C@H](CCC(=O)O)NC(C)=O)[C@@H](C)O)C(=O)N[C@@H](C)C(=O)N[C@@H](Cc1c[nH]c2ccccc12)C(=O)NCC(=O)N(C)CC(=O)N[C@H](C(=O)NCC(=O)N[C@@H](CC(=O)O)C(=O)N[C@@H](CCC(=O)O)C(=O)N[C@@H](CC(=O)O)C(N)=O)[C@@H](C)O
B4: (N-Me-E)… (peptide)
peptide: Ac-[NMeE]TEFIAWGPTGDED-NH2
SMILES: CC[C@H](C)[C@H](NC(=O)[C@H](Cc1ccccc1)NC(=O)[C@H](CCC(=O)O)NC(=O)[C@@H](NC(=O)[C@H](CCC(=O)O)N(C)C(C)=O)[C@@H](C)O)C(=O)N[C@@H](C)C(=O)N[C@@H](Cc1c[nH]c2ccccc12)C(=O)NCC(=O)N1CCC[C@H]1C(=O)N[C@H](C(=O)NCC(=O)N[C@@H](CC(=O)O)C(=O)N[C@@H](CCC(=O)O)C(=O)N[C@@H](CC(=O)O)C(N)=O)[C@@H](C)O
B5: …aDED (peptide)
peptide: Ac-ETEFIAWGPT[dA]DED-NH2
SMILES: CC[C@H](C)[C@H](NC(=O)[C@H](Cc1ccccc1)NC(=O)[C@H](CCC(=O)O)NC(=O)[C@@H](NC(=O)[C@H](CCC(=O)O)NC(C)=O)[C@@H](C)O)C(=O)N[C@@H](C)C(=O)N[C@@H](Cc1c[nH]c2ccccc12)C(=O)NCC(=O)N1CCC[C@H]1C(=O)N[C@H](C(=O)N[C@H](C)C(=O)N[C@@H](CC(=O)O)C(=O)N[C@@H](CCC(=O)O)C(=O)N[C@@H](CC(=O)O)C(N)=O)[C@@H](C)O
B6: …(N-Me-T)GDED (peptide)
peptide: Ac-ETEFIAWGP[NMeT]GDED-NH2
SMILES: CC[C@H](C)[C@H](NC(=O)[C@H](Cc1ccccc1)NC(=O)[C@H](CCC(=O)O)NC(=O)[C@@H](NC(=O)[C@H](CCC(=O)O)NC(C)=O)[C@@H](C)O)C(=O)N[C@@H](C)C(=O)N[C@@H](Cc1c[nH]c2ccccc12)C(=O)NCC(=O)N1CCC[C@H]1C(=O)N(C)[C@H](C(=O)NCC(=O)N[C@@H](CC(=O)O)C(=O)N[C@@H](CCC(=O)O)C(=O)N[C@@H](CC(=O)O)C(N)=O)[C@@H](C)O
B7: e… (peptide)
peptide: Ac-[dE]TEFIAWGPTGDED-NH2
SMILES: CC[C@H](C)[C@H](NC(=O)[C@H](Cc1ccccc1)NC(=O)[C@H](CCC(=O)O)NC(=O)[C@@H](NC(=O)[C@@H](CCC(=O)O)NC(C)=O)[C@@H](C)O)C(=O)N[C@@H](C)C(=O)N[C@@H](Cc1c[nH]c2ccccc12)C(=O)NCC(=O)N1CCC[C@H]1C(=O)N[C@H](C(=O)NCC(=O)N[C@@H](CC(=O)O)C(=O)N[C@@H](CCC(=O)O)C(=O)N[C@@H](CC(=O)O)C(N)=O)[C@@H](C)O
B8: ETE(N-Me-F)… (peptide)
peptide: Ac-ETE[NMeF]IAWGPTGDED-NH2
SMILES: CC[C@H](C)[C@H](NC(=O)[C@H](Cc1ccccc1)N(C)C(=O)[C@H](CCC(=O)O)NC(=O)[C@@H](NC(=O)[C@H](CCC(=O)O)NC(C)=O)[C@@H](C)O)C(=O)N[C@@H](C)C(=O)N[C@@H](Cc1c[nH]c2ccccc12)C(=O)NCC(=O)N1CCC[C@H]1C(=O)N[C@H](C(=O)NCC(=O)N[C@@H](CC(=O)O)C(=O)N[C@@H](CCC(=O)O)C(=O)N[C@@H](CC(=O)O)C(N)=O)[C@@H](C)O
B9: E(N-Me-T)… (peptide)
peptide: Ac-E[NMeT]EFIAWGPTGDED-NH2
SMILES: CC[C@H](C)[C@H](NC(=O)[C@H](Cc1ccccc1)NC(=O)[C@H](CCC(=O)O)NC(=O)[C@H]([C@@H](C)O)N(C)C(=O)[C@H](CCC(=O)O)NC(C)=O)C(=O)N[C@@H](C)C(=O)N[C@@H](Cc1c[nH]c2ccccc12)C(=O)NCC(=O)N1CCC[C@H]1C(=O)N[C@H](C(=O)NCC(=O)N[C@@H](CC(=O)O)C(=O)N[C@@H](CCC(=O)O)C(=O)N[C@@H](CC(=O)O)C(N)=O)[C@@H](C)O
B10: …(N-Me-T)D (peptide)
peptide: Ac-EDDSDVWWGGAD[NMeT]D-NH2
SMILES: CC(=O)N[C@@H](CCC(=O)O)C(=O)N[C@@H](CC(=O)O)C(=O)N[C@@H](CC(=O)O)C(=O)N[C@@H](CO)C(=O)N[C@@H](CC(=O)O)C(=O)N[C@H](C(=O)N[C@@H](Cc1c[nH]c2ccccc12)C(=O)N[C@@H](Cc1c[nH]c2ccccc12)C(=O)NCC(=O)NCC(=O)N[C@@H](C)C(=O)N[C@@H](CC(=O)O)C(=O)N(C)[C@H](C(=O)N[C@@H](CC(=O)O)C(N)=O)[C@@H](C)O)C(C)C
B11: …(N-Me-D) (peptide)
peptide: Ac-EDDSDVWWGGADT[NMeD]-NH2
SMILES: CC(=O)N[C@@H](CCC(=O)O)C(=O)N[C@@H](CC(=O)O)C(=O)N[C@@H](CC(=O)O)C(=O)N[C@@H](CO)C(=O)N[C@@H](CC(=O)O)C(=O)N[C@H](C(=O)N[C@@H](Cc1c[nH]c2ccccc12)C(=O)N[C@@H](Cc1c[nH]c2ccccc12)C(=O)NCC(=O)NCC(=O)N[C@@H](C)C(=O)N[C@@H](CC(=O)O)C(=O)N[C@H](C(=O)N(C)[C@@H](CC(=O)O)C(N)=O)[C@@H](C)O)C(C)C
B12: ETEF(N-Me-I)… (peptide)
peptide: Ac-ETEF[NMeI]AWGPTGDED-NH2
SMILES: CC[C@H](C)[C@@H](C(=O)N[C@@H](C)C(=O)N[C@@H](Cc1c[nH]c2ccccc12)C(=O)NCC(=O)N1CCC[C@H]1C(=O)N[C@H](C(=O)NCC(=O)N[C@@H](CC(=O)O)C(=O)N[C@@H](CCC(=O)O)C(=O)N[C@@H](CC(=O)O)C(N)=O)[C@@H](C)O)N(C)C(=O)[C@H](Cc1ccccc1)NC(=O)[C@H](CCC(=O)O)NC(=O)[C@@H](NC(=O)[C@H](CCC(=O)O)NC(C)=O)[C@@H](C)O

In the experiment the target is Sushi domains (SD1/2) protein of the GABAB1a (GB1a) subunit, recombinant. Put plainly: FP competition.
Chain of Sushi domains (SD1/2) protein of the GABAB1a (GB1a) subunit, recombinant (Q9Z0U4 29-158): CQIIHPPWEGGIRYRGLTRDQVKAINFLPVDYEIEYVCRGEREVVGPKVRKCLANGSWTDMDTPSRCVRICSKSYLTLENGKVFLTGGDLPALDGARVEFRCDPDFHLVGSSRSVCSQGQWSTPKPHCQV
In the case of B1, the Ki is 159 nM. As for Ac-ETEFIAWGPTGAED-NH2, the inhibition constant (Ki) came to 50 nM. On to B2, for which the Ki stood at 46 nM.

As for B3, the Ki amounted to 32 nM. To Ac-EAEFIAWGPTGDED-NH2 belongs 34 nM; to Ac-ETEFIAWGPTGDAD-NH2, 38 nM. Then B4, with 35 nM; and Ac-ETEFIAWG[dP]TGDED-NH2 [ETEFIAWGpTGDED], with 352 nM. Then Ac-ETEFIAWGPTADED-NH2, with 20 nM; and Ac-ETEFIAWGPTGDEA-NH2, with 44 nM.

Consider B5, for which the Ki came to 54 nM.

Regarding B6, the Ki is 77 nM. To Ac-ETEFIAWGPTG[dD]ED-NH2 […dED] belongs 29 nM; to Ac-ETEFIAWGATGDED-NH2, 291 nM; to B7, 46 nM. To Ac-E[dT]EFIAWGPTGDED-NH2 [Et…] belongs 56 nM.

For the molecule Ac-ETEFIAWAPTGDED-NH2, the Ki was determined as 196 nM.

For the molecule Ac-ETEFIAWGPAGDED-NH2, the Ki is 89 nM. To Ac-ET[dE]FIAWGPTGDED-NH2 [ETe…] belongs 178 nM; to Ac-ETEFIAW[dA]PTGDED-NH2 [ETEFIAWaPTGDED], 5400 nM. To Ac-ETE[dF]IAWGPTGDED-NH2 [ETEf…] belongs 930 nM; to Ac-ETEFIAWGPTGDE[dD]-NH2 […d], 39 nM; to B8, 252 nM. In the case of Ac-ATEFIAWGPTGDED-NH2, the inhibition constant Ki amounted to 53 nM.

As to B9, the Ki stood at 37 nM. Then B10, with 503 nM; and Ac-ETAFIAWGPTGDED-NH2, with 49 nM; and Ac-ETEAIAWGPTGDED-NH2, with 688 nM. For B11, the inhibition constant (Ki) was found to be 565 nM. Then B12, with 33 nM. For the molecule Ac-ETEFIAWGPTGD[dE]D-NH2 […eD], the Ki amounted to 44 nM.

For orientation: Ki means a measure of affinity in units of concentration, obtained from inhibition or displacement.
